Each block holds one binder with its values, some of them ahead of it.
Columns and labels:
[1] = biological target: T1, human prolactin receptor (PRLR), cell surface-expressed (human, UniProt P16471 25-622); test: cell-based or functional assay
T1 sequence: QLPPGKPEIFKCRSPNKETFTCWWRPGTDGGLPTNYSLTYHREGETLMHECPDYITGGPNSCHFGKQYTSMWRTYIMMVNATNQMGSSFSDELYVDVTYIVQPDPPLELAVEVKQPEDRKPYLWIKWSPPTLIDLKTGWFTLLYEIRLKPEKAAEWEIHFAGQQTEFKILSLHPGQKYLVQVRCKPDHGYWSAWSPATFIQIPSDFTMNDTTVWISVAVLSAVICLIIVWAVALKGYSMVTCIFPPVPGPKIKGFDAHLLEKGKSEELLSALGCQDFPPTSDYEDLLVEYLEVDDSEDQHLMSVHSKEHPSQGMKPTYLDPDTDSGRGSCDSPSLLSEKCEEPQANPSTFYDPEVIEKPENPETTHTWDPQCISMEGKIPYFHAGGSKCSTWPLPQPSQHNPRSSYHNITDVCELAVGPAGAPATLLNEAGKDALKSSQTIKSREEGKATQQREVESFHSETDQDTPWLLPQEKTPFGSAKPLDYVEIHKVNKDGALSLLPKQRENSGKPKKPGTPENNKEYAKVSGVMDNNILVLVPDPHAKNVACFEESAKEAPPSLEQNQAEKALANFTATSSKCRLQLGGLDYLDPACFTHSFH

[2] = biological target: T1, human prolactin receptor (PRLR), cell …; test: cell-based or functional assay; remark: listed apart in the source
[3] = biological target: T1, human prolactin receptor (PRLR), cell …; test: cell-based or functional assay; remark: listed apart in the source
[4] = biological target: T1, human prolactin receptor (PRLR), cell …; test: cell-based or functional assay; remark: listed apart in the source
IL-6R = biological target: T2, IL-6R (human, UniProt P08887 20-468); test: FACS on KG-1 cells (endogenous IL-6R), PE anti-human secondary, MFI above isotype control
T2 construct: whole, on cells
T2 sequence (looked up): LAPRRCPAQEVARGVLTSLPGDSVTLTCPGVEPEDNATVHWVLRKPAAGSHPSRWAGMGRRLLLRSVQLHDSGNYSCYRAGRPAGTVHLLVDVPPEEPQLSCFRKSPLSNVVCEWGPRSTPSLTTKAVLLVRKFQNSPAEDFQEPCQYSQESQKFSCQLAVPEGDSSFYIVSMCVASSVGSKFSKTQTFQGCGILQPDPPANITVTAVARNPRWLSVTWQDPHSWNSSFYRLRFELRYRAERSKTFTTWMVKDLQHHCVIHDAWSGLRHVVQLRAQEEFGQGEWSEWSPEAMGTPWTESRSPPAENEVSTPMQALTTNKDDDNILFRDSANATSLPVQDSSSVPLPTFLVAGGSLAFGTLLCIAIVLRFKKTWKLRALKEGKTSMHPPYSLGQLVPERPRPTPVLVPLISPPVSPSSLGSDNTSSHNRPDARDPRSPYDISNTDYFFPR

B1: H1H6953N-SMCC-DM1 (antibody, human IgG1, V domains shown)
VH: EVQLLESGGGLVQPGGTLRLSCAASGFTFSAYAMSWVRQAPGKGLEWVSSINVRAGDTYYADSVKGRFTISRDNSKNTLFLLMNSLRAEDTAAYYCAKARYSSNWGFDFWGQGTLVTVSS
VL: DIVMTQSPDSLTVSLGARTTINCQSSQTILHSSNNHNYLAWYQQKPGLPPKLLIYWSSTRESGVPDRFSGSGSGTDFTLTISSLQAEDVAIYYCQQYSNTPYTFGQGTKLEIN
modifications: DM1 conjugated through an SMCC linker; attachment residues not stated
IC50, cell viability, 293/PRLR cells [1]: 0.43 nM | IC50, cell viability, PC3/PRLR cells [2]: 0.68 nM | IC50, cell viability, MCF7 cells [3]: 82 nM | IC50, cell viability, T47D cells [3]: 1.3 nM | IC50, cell viability, T47D/ErbB2 cells [3]: 2.4 nM | IC50, cell viability, MCF7/PRLR cells [4]: 0.33 nM | IC50, cell viability, MCF/PRLR + ErbB2 cells [4]: 0.33 nM | IC50, cell viability, NCI-N87/PRLR cells [4]: 2.9 nM

MFI fold over background (IL-6R): 7 fold over background
B2: VV6A9-5 (antibody, V domains shown)
VH: EVQLVESGGGLVQPGRSLRLSCAASGFTFDDYALHWVRQAPGKGLEWVSGVSWNGGRIGYADSVKGRFTISRDNAKNSLFLQMNSLRVEDTALYYCAKGRDAFDIWGQGTLVTVSS
VL: DIQMTQSPSSVSASVGDRVTITCRASQGISSWLAWYQQKPGKAPKLLIYAASSLQSGVPSRFSGSGSGTDFTLTISSLQPEDFATYYCQHAYSFPYTFGQGTKLEIK

From US20150056222A1 (Regeneron, published 2015)
